Laboratory results published in patent CN117229395A.
Each block holds one binder with its values, some of them ahead of it.

Legend:
CT21 (human) = biological target: T1, CT21 (human); assay: competition ELISA; antibody pre-incubated with peptide, then on coated CT antigen
T1 sequence (peptide, C-terminal amide (-NH2)): HTFPQTAIGVGAP

CT22 (human) = biological target: T2, CT22 (human); assay: as above
T2 sequence (peptide, C-terminal amide (-NH2)): QTAIGVGAP

CT23 (human) = biological target: T3, CT23 (human); assay: as above
T3 sequence (peptide, C-terminal amide (-NH2)): IGVGAP

CT24 (human) = assay: as above
CT25 (human) = biological target: T4, CT25 (human); assay: as above
T4 sequence (peptide, C-terminal amide (-NH2)): VGAP

CT26 (human) = assay: as above
CT43 (human) = biological target: T5, CT43 (human); assay: competition ELISA; antibody pre-incubated with alanine-mutant peptide, then on coated CT antigen
T5 sequence (peptide, C-terminal amide (-NH2)): ATAIGVGAP

CT44 (human) = biological target: T6, CT44 (human); assay: as above
T6 sequence (peptide, C-terminal amide (-NH2)): QAAIGVGAP

CT45 (human) = biological target: T7, CT45 (human); assay: as above
T7 sequence (peptide, C-terminal amide (-NH2)): QTAAGVGAP

CT46 (human) = biological target: T8, CT46 (human); assay: as above
T8 sequence (peptide, C-terminal amide (-NH2)): QTAIAVGAP

CT47 (human) = biological target: T9, CT47 (human); assay: as above
T9 sequence (peptide, C-terminal amide (-NH2)): QTAIGAGAP

CT48 (human) = biological target: T10, CT48 (human); assay: as above
T10 sequence (peptide, C-terminal amide (-NH2)): QTAIGVAAP

CT49 (human) = biological target: T11, CT49 (human); assay: as above
T11 sequence (peptide, C-terminal amide (-NH2)): QTAIGVGAA

CT1 (human) = biological target: T12, CT1 (human); assay: competition ELISA; antibody pre-incubated with peptide, then on coated CT antigen
T12 sequence (peptide): CGNLSTCMLGTYTQDF

CT10 (human) = biological target: T13, CT10 (human); assay: as above
T13 sequence (peptide): QDFNKFHTFPQ

CT11 (human) = biological target: T14, CT11 (human); assay: as above
T14 sequence (peptide): DFNKFH

CT12 (human) = biological target: T15, CT12 (human); assay: as above
T15 sequence (peptide): DFNKFHT

CT13 (human) = biological target: T16, CT13 (human); assay: as above
T16 sequence (peptide): DFNKFHTF

CT14 (human) = biological target: T17, CT14 (human); assay: as above
T17 sequence (peptide): DFNKFHTFP

CT15 (human) = biological target: T18, CT15 (human); assay: as above
T18 sequence (peptide): DFNKFHTFPQ

CT16 (human) = biological target: T19, CT16 (human); assay: as above
T19 sequence (peptide): FNKF

CT17 (human) = biological target: T20, CT17 (human); assay: as above
T20 sequence (peptide): FNKFH

CT18 (human) = biological target: T21, CT18 (human); assay: as above
T21 sequence (peptide): FNKFHT

CT2 (human) = biological target: T22, CT2 (human); assay: as above
T22 sequence (peptide): LGTYTQDFNKFHTFPQ

CT3 (human) = biological target: T23, CT3 (human); assay: as above
T23 sequence (peptide): NKFHTFPQTAIGVGAP

CT4 (human) = biological target: T24, CT4 (human); assay: as above
T24 sequence (peptide): YTQDFNKFHTFP

CT5 (human) = biological target: T25, CT5 (human); assay: as above
T25 sequence (peptide): TQDFNKFHTF

CT6 (human) = biological target: T26, CT6 (human); assay: as above
T26 sequence (peptide): TQDFNKFHTFP

CT7 (human) = biological target: T27, CT7 (human); assay: as above
T27 sequence (peptide): TQDFNKFHTFPQ

CT8 (human) = biological target: T28, CT8 (human); assay: as above
T28 sequence (peptide): QDFNKFHTF

CT9 (human) = biological target: T29, CT9 (human); assay: as above
T29 sequence (peptide): QDFNKFHTFP

[1] = biological target: T30, WHO国际标准降钙素(Human NIBSC code:89/620) (Human) (UniProt P01258); assay: sandwich chemiluminescence; CT captured by 10B11 magnetic beads, detected by acridinium ester labelled 14D11
T30 sequence (peptide, looked up): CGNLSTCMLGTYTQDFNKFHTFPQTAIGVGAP

competition rate (对照样品OD值-检测样品OD值)/对照样品OD值 (CT21 (human)): 98%
competition rate (对照样品OD值-检测样品OD值)/对照样品OD值 (CT22 (human)): 98%
competition rate (对照样品OD值-检测样品OD值)/对照样品OD值 (CT23 (human)): 98%
competition rate (对照样品OD值-检测样品OD值)/对照样品OD值 (CT24 (human)): 98%
competition rate (对照样品OD值-检测样品OD值)/对照样品OD值 (CT25 (human)): 98%
competition rate (对照样品OD值-检测样品OD值)/对照样品OD值 (CT26 (human)): 60%
competition rate (对照样品OD值-检测样品OD值)/对照样品OD值 (CT43 (human)): 97%
competition rate (对照样品OD值-检测样品OD值)/对照样品OD值 (CT44 (human)): 98%
competition rate (对照样品OD值-检测样品OD值)/对照样品OD值 (CT45 (human)): 97%
competition rate (对照样品OD值-检测样品OD值)/对照样品OD值 (CT46 (human)): 92%
competition rate (对照样品OD值-检测样品OD值)/对照样品OD值 (CT47 (human)): 85%
competition rate (对照样品OD值-检测样品OD值)/对照样品OD值 (CT48 (human)): 62%
competition rate (对照样品OD值-检测样品OD值)/对照样品OD值 (CT49 (human)): 56%
B1: 10B11 (antibody, V domains shown)
VH: SDVQLQESGPGLVKPSQSLSLTCTVTGYSITSDYVWNWIRQFPGNKLEWMGYISYSGSTNYNPSLKSRISITRDTSKNQFFLQLNSVTTEDTATYYCAREDWPAWGQ
VL: DIVMTQSQKLMSTSVGDRVSITCKASQNVRSAVAWYQQKPGQSPKTLIYLTSNRHTGVPDRFTGSGSGTDFTLTINNVQSEDLADYFCLQHWNSPLTFGGGTKLEIK

competition rate (对照样品OD值-检测样品OD值)/对照样品OD值 (CT1 (human)): 1%
competition rate (对照样品OD值-检测样品OD值)/对照样品OD值 (CT10 (human)): 95%
competition rate (对照样品OD值-检测样品OD值)/对照样品OD值 (CT11 (human)): 68%
competition rate (对照样品OD值-检测样品OD值)/对照样品OD值 (CT12 (human)): 92%
competition rate (对照样品OD值-检测样品OD值)/对照样品OD值 (CT13 (human)): 92%
competition rate (对照样品OD值-检测样品OD值)/对照样品OD值 (CT14 (human)): 91%
competition rate (对照样品OD值-检测样品OD值)/对照样品OD值 (CT15 (human)): 91%
competition rate (对照样品OD值-检测样品OD值)/对照样品OD值 (CT16 (human)): 11%
competition rate (对照样品OD值-检测样品OD值)/对照样品OD值 (CT17 (human)): -14%
competition rate (对照样品OD值-检测样品OD值)/对照样品OD值 (CT18 (human)): 30%
competition rate (对照样品OD值-检测样品OD值)/对照样品OD值 (CT2 (human)): 99%
competition rate (对照样品OD值-检测样品OD值)/对照样品OD值 (CT3 (human)): 32%
competition rate (对照样品OD值-检测样品OD值)/对照样品OD值 (CT4 (human)): 99%
competition rate (对照样品OD值-检测样品OD值)/对照样品OD值 (CT5 (human)): 91%
competition rate (对照样品OD值-检测样品OD值)/对照样品OD值 (CT6 (human)): 94%
competition rate (对照样品OD值-检测样品OD值)/对照样品OD值 (CT7 (human)): 95%
competition rate (对照样品OD值-检测样品OD值)/对照样品OD值 (CT8 (human)): 92%
competition rate (对照样品OD值-检测样品OD值)/对照样品OD值 (CT9 (human)): 95%
发光值 at CT(WHO) 0.125pg/ml [1]: 1730
发光值 at CT(WHO) 0.25pg/ml [1]: 2410
发光值 at CT(WHO) 0.5pg/ml [1]: 4030
发光值 at CT(WHO) 1pg/ml [1]: 7460
发光值 at CT(WHO) 2pg/ml [1]: 13600
B2: 14D11 (antibody, V domains shown)
VH: EVQLQQSGPELVKPGTSVKIFCMTSGYTFTEFTMHWVKKSPGESLEWIGGIFPDNGGSTYNRKFKDKATLTVDRSSRTAYLELRSLTSEDSAVYYCARYYYNGRAYGIYAMDYWGQGTSVTVSS
VL: DVVLTQSPLSLFVSLGDQVSISCRSSQSLVHSNGNTYLHWYQLKTGQSPKLLIYTVSNRFSGVPDRFSGSGSGTDFTLKINRVEAEDLGVYFCSQSKLVPWTFGGGTKLEIK
